Test results taken from article PMC6941876, “White Spot Syndrome Virus Establishes a Novel IE1/JNK/c-Jun Positive Feedback Loop to Drive Replication”.

B1: IE1-AP-1-1 probe (dsDNA)
DNA 1: GAAAATGGCTGTTTGAATCATGTTAAGGAATT
DNA 2: AATTCCTTAACATGATTCAAACAGCCATTTTC
B2: Mut-unBio-IE1-AP-1-1 (dsDNA)
DNA 1: GAAAATCGCTGTTCCCATCCTGTTAAGGAATT
DNA 2: AATTCCTTAACAGGATGGGAACAGCGATTTTC
B3: IE1-AP-1-2 probe (dsDNA)
DNA 1: GGAATTTCCTTGTTACTCATTTATTCCTAGA
DNA 2: TCTAGGAATAAATGAGTAACAAGGAAATTCC
B4: 056-AP-1 probe (dsDNA)
DNA 1: GTACCAGATGTGAGTCAAACCGTTTCTGG
DNA 2: CCAGAAACGGTTTGACTCACATCTGGTAC
B5: 249-AP-1 probe (dsDNA)
DNA 1: TAGGAATTTCGCTGACGTCAATAAACTGGTTT
DNA 2: AAACCAGTTTATTGACGTCAGCGAAATTCCTA
B6: 403-AP-1 probe (dsDNA)
DNA 1: ATTTCCAAGAATTTTGCTGACGTCAATGGACC
DNA 2: GGTCCATTGACGTCAGCAAAATTCTTGGAAAT

Tests used:
rLvc-Jun [1] = target: T1, rLvc-Jun (Litopenaeus vannamei, UniProt A0A0A7W5M9 1-293); assay: EMSA; EMSA with biotin-labeled probes; buffer, salt, pH and temperature not in the material; details: protein: recombinant, tags: GST tag removed with enterokinase, chain copies: 0, blunt
T1 chain: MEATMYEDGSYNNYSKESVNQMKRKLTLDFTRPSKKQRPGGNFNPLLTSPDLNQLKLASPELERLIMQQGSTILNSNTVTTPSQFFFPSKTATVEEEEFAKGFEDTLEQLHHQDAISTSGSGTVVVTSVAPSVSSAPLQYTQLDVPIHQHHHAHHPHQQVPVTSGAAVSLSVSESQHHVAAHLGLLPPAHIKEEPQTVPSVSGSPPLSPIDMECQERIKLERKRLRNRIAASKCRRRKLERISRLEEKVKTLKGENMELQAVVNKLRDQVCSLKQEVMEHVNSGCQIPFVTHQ

rLvc-Jun [2] = target: T1, rLvc-Jun; assay: competition; 10-, 50-, 100-fold excess over biotin IE1-AP-1-1; EMSA with biotin-labeled probes; buffer, salt, pH and temperature not in the material; details: protein: recombinant; tags: GST tag removed with enterokinase; chain copies: 0; label: none; blunt

Binder	binding result (rLvc-Jun [1]; label: biotin (probe))	binding result (rLvc-Jun [1]; label: biotin)	further results
B1	binds	–	–
B2	–	–	binding result (rLvc-Jun [2]): no binding
B3	binds	–	–
B4	–	binds	–
B5	–	binds	–
B6	–	binds	–
